The results in this text go back to paper PMC5794981.

This test deals with aflibercept (Eylea) (human). The test is described as follows: SEC; Superdex 200 Increase 10/300 GL, aflibercept diluted in PBS to 8 mg/ml, 77 ul injected, 25 °C; samples stored 0, 7 or 28 days.

Sequence of aflibercept (Eylea) (Fc fusion) (chain): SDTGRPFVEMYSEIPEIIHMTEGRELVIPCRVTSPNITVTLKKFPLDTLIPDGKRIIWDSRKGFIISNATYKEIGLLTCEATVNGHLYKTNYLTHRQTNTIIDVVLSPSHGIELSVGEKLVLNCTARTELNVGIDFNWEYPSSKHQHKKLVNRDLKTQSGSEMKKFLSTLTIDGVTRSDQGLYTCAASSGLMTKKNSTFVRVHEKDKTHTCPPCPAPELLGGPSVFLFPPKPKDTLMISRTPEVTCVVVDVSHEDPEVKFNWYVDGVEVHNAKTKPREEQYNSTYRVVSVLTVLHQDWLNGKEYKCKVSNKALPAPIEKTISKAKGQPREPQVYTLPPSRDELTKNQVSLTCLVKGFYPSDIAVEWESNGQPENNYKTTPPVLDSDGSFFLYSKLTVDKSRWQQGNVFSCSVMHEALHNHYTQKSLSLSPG

Turning to aflibercept (Eylea) (Fc fusion), the stoichiometry N was determined as 2.

One may read the stoichiometry N as a count of units in the complex or per binding partner.
